In patent publication US6777176 (ARPIDA, dated 2004):

B1: peptide 28 (peptide)
peptide: RHITLF
B2: peptide 26 (peptide)
peptide: RHYLLF
B3: peptide 31 (peptide)
peptide: MRLLKTLCFGLCG
B4: peptide 27 (peptide)
peptide: RHITSL
B5: peptide 17 (peptide)
peptide: SSLRGHRWVY
B6: peptide 25 (peptide)
peptide: RHRTLF
B7: peptide 22 (peptide)
peptide: DGARLHYLF
B8: peptide 13 (peptide)
peptide: WHKR
B9: peptide 12 (peptide)
peptide: WHKR
B10: peptide 1 (peptide)
peptide: KKFHLRK
B11: peptide 2 (peptide)
peptide: KKFALRK
B12: peptide 8 (peptide)
peptide: KKWHKRKK
B13: peptide 15 (peptide)
peptide: SGRKSTRVHHWLLVL
B14: peptide 9 (peptide)
peptide: KKFHIRKR
B15: peptide 14 (peptide)
peptide: GLRFGKTRVHYLVLG

What follows are binders tested against T1, enzyme I (phosphoenolpyruvate-protein-phosphatase, EC 2.7.3.9) of the bacterial phosphotransferase system (E. coli, UniProt P08839 1-575) (assay: cell-based or functional assay).
In the case of B1, the “inhibition IC50” value is reported as 160 µM and the “uncoupling P1/peptide/h” value is reported as 0.31 P1/peptide/h. B2 was tested, and the “inhibition IC50” value was 300 µM and the “uncoupling P1/peptide/h” value was 0.29 P1/peptide/h. With B3 the “inhibition IC50” value was 4900 µM. For B4, the “inhibition IC50” value was 440 µM and the “uncoupling P1/peptide/h” value was 0.215 P1/peptide/h. With B5 the “uncoupling P1/peptide/h” value was 0.07 P1/peptide/h. For B6, the “inhibition IC50” value was 530 µM and the “uncoupling P1/peptide/h” value was 0.23 P1/peptide/h. B7 was tested, and the “inhibition IC50” value was 820 µM and the “uncoupling P1/peptide/h” value was 0.05 P1/peptide/h.

Target: T1, enzyme I …
Test: cell-based or functional assay
Remark: another data set of the same source
For B8, the “inhibition IC50 (µM) of in vitro phosphotransferase activity” value (“inhibition IC50 (µM)” for short) was 500 µM. With B9 the “inhibition IC50 (µM)” value was 410 µM. In the case of B10, the “inhibition IC50 (µM)” value is reported as 25 µM and the “uncoupling P1/peptide (x IC50/h)” value is reported as 3.2 x IC50/h. B11 was tested, and the “inhibition IC50 (µM)” value was 60 µM and the “uncoupling P1/peptide (x IC50/h)” value was 6.6 x IC50/h. In the case of B12, the “inhibition IC50 (µM)” value is reported as 375 µM and the “uncoupling P1/peptide (x IC50/h)” value is reported as 64.2 x IC50/h. With B13 the “inhibition IC50 (µM)” value was 1380 µM. With B14 the “inhibition IC50 (µM)” value was 1200 µM and the “uncoupling P1/peptide (x IC50/h)” value was 132 x IC50/h. With B15 the “inhibition IC50 (µM)” value was 650 µM.
